This note sets out measurements from paper PMC12139721.

For the assay, the target named is CUL5-RBX2 (human | mouse) (UniProt Q93034). As to the kind of experiment: SEC + native MS.
Sequence of UniProt Q93034 (Q93034 whole entry, chain 1 of 2): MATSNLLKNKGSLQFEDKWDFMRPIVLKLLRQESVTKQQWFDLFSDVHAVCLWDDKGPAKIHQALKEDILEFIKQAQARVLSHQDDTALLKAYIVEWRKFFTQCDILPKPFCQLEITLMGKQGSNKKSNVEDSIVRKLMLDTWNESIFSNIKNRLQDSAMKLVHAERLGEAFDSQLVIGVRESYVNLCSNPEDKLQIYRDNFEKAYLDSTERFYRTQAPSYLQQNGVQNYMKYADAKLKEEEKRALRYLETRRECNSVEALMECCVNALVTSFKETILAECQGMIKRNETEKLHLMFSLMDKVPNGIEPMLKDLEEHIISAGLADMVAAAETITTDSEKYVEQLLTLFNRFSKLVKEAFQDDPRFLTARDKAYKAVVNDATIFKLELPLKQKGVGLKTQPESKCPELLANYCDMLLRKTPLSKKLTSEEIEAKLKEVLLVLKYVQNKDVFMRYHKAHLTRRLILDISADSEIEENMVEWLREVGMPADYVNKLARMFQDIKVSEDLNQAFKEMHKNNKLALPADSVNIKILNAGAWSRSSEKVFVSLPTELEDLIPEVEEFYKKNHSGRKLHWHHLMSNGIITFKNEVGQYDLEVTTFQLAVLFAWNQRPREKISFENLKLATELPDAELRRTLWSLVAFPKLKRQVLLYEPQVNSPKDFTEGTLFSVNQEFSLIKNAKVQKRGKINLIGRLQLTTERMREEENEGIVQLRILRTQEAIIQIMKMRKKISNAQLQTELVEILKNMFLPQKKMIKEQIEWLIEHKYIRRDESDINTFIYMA
Sequence of UniProt Q93034 (Q9WTZ1 whole entry, chain 2 of 2, further chain): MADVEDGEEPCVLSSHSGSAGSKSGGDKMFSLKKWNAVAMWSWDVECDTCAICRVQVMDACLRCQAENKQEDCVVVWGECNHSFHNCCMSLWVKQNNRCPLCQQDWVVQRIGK

With “PCMTD1-ELOBC (from UniProt Q96MG8;Q15370;Q15369) (complex)”, the stoichiometry N was determined as 1.
